Reference: US20260216242A1, “ALPP-SPECIFIC VARIANT ANTIGEN BINDING MOLECULES” (ALMAC DISCOVERY LIMITED, priority 2022, published 2026)

Target: Human ALPPL2 (Homo sapiens, UniProt P10696)
Experiment: BLI binding kinetics, human ALPPL2 immobilised on AR2G sensors (KD / KD apparent)
Conditions: VHH domains
Method: Binding kinetics were determined using the Biolayer Interferometry (BLI) Octet K2 system (Sartorius). Human ALPP, ALPPL2, ALPL (each fused with a cysteine stabilised leucine zipper) and ALPI, (SEQ ID NO: 265, SEQ ID NO: 266 and SEQ ID NO: 267 and SEQ ID NO: 264 respectively) were immobilised in sodium acetate pH5 buffer to AR2G sensors using amine coupling. All assays were conducted in PBS with a plate temperature of 25° C. Ka (M^−1s^−1), Kd (s^−1) and KD (nM) values were determined using Octet Data Analysis High Throughput software (ForteBio) for Biolayer Interferometry.
(§1) Binding kinetics were determined using the Biolayer Interferometry (BLI) Octet K2 or R4 system (Sartorius). Human ALPP, ALPPL2 and ALPL all fused with a disulphide stabilised leucine zipper (SEQ ID NO: 265, SEQ ID NO: 266, and SEQ ID NO: 267) and ALPI His (SEQ ID NO: 264) were used in BLI experiments. For KD apparent measurements, the ALPP proteins were immobilised in sodium acetate pH5 buffer to AR2G sensors using amine coupling. To measure 1:1 interactions, AHC biosensors were used to immobilise Fc-fused proteins. All assays were conducted in HBS-EP with a plate temperature of 25° C. Ka (M^−1s^−1), Kd (s^−1) and KD (nM) values were determined using Octet Data Analysis High Throughput software (Sartorius) for Biolayer Interferometry.
as §1, with “NO:264)” for “NO: 264)”

Chain of Human ALPPL2 (P10696 with tags, fused parts or gaps): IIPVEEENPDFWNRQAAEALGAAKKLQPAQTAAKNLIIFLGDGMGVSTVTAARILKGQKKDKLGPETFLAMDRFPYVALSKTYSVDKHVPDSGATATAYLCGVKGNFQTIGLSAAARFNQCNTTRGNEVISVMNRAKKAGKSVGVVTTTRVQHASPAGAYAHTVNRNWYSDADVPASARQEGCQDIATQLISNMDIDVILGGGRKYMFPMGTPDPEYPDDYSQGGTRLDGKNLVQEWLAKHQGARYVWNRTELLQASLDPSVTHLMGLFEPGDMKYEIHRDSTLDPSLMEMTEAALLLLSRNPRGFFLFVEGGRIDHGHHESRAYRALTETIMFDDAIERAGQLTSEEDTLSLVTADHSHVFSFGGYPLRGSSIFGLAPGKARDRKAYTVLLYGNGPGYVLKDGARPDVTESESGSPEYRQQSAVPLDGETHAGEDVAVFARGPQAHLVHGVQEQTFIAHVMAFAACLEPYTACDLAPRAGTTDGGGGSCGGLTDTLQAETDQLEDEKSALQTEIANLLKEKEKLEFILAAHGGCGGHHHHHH

| Molecule | hALPPL2 Ka [M⁻¹ s⁻¹] | hALPPL2 Kd [s⁻¹] |
| --- | --- | --- |
| C07: ALPP/ALPPL2 targeting VHH domain, SEQ ID NO: 25 (protein) VHH: QVQLVESGGGLVQAGESLRLACAASGTIFSGNAVGWYRQAPEKQREWVSSITDYGDTDYAEAVKGRFTISRDNAKNTVYLQMNSLKPEDTAVYYCYVYQRGESEEYWGQGTQVTVSS | 471000 | 0.000288 |
| D10: ALPP targeting VHH domain, SEQ ID NO: 28 (protein) VHH: QVQLVESGGGLVQPGGSLRLSCAASGSIFSVNTMGWYRQAPGKQRDLVAVATSGGTIHYADSVKGRFTISRDNAKNTVYLQMNSLKPEDTAVYYCNLVVPYGMIAGDHDYWGQGTKVTVSS | 2300000 | 0.0028 |
| F08: ALPP/ALPPL2 targeting VHH domain, SEQ ID NO: 35 (protein) VHH: QVQLVESGGGSVQAGGSLRLSCAASGPSLSNYAMGWFRQAPGKEREFVAGISWGGGRTSYTDSVKGRFTISRDNAKNTVYLQMNNLKPEDTGVYYCAGRYGRGRNVEYEYDYWGQGTQVTVSS | 684000 | <1e-07 |
| D04: ALPP/ALPPL2 targeting VHH domain, SEQ ID NO: 26 (protein) VHH: QVQLVESGGGLVQPGGSLRLSCAASESTFSINVMGWYRQAPGKQRELVATITSGDITNYADSVKGRFTISRDNAENTVYLRTNSLKPEDTAVYYCNARGEYHSGNEYDYWGQGTQVTVSS | 754000 | 0.00022 |
| B01: ALPP/ALPPL2 targeting VHH domain, SEQ ID NO: 20 (protein) VHH: QVQLVESGGGLVQAGGSLRLSCEVTRSPMPIDTMAWYRQAPGRQRELVAIISRSGSTNYADSVKGRFTISRNDTKSTMYKSTMYLKMNTLELEDTGVYYCNAVGLWNGAEYWGQGTQVTVSS | 482000 | 0.00014 |
| A06: ALPP/ALPPL2 targeting VHH domain, SEQ ID NO: 17; tested C-terminally His-tagged (protein, C-terminal His tag, tested C-terminally His-tagged) VHH: QVHLVESGGGLVQAGGSLRLSCAASGRTFLSMGWFRQAPGKEREFVAAISWTGGSTGYADSVKGRFTISRESDKETMYLQMNSLKPEDTAVYYCAARGDVYYGGDDATRYKYWGQGTQVTVSS | 133000 | 0.000672 |
| E10: ALPP/ALPPL2 targeting VHH domain, SEQ ID NO: 31 (protein) VHH: QVQLVESGGGLVQAGGSLRLSCAVSGRALSDYNIGWFRQAPGKEREFVARKTWDGSSTRYDDSVKGRFTVSIEDAKNTAYLQMSSLKTEDTAVYYCAAGRYSRARGWEYDYWGQGTQVTVSS | 1640000 | 0.000141 |
| F05: ALPP/ALPPL2 targeting VHH domain, SEQ ID NO: 34 (protein) VHH: QVQLVESGGGLVQAGGSLRLSCAASGRAFGDYNIGWFRQAPGKEREFVARRTWDGSSTRYDDSVKGRFTVSIDNAKNTAYLQMNSLKTEDTAVYYCAAGRYSRVRGWEYDYWGQGTQVTVSS | 3740000 | 0.000356 |
| E06: ALPP/ALPPL2 targeting VHH domain, SEQ ID NO: 30 (protein) VHH: QVHLVESGGGLVQAGGSLRLSCAASRRSFSEYAMGWFRQAPGKEREFVAAIGWSGVIEYADSVKGRFTISRDNAKDTVYLQMNSLKPEDTAVYYCAAGLGIRVVSQTPAYWGQGTQVTVSS | 1050000 | 0.0000875 |
